The test concerns the target T1, His6–GFP–POU2F3 (UniProt Q9UKI9 1-436).
T1 sequence (looked up): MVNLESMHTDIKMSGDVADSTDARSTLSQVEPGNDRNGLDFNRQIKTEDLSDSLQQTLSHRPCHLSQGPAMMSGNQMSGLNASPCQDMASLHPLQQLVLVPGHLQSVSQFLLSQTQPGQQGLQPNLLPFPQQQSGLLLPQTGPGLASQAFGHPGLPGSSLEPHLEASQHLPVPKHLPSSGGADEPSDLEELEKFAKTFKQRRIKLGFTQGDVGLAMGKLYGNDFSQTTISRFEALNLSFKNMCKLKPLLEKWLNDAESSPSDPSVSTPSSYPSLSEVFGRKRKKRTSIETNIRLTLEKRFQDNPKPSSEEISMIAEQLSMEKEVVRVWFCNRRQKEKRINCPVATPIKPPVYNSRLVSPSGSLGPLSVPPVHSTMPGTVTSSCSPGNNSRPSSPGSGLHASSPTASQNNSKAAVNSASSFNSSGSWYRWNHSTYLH
As to the kind of experiment: SEC.

B1: Strep2SUMO–OCA-B (natural protein, UniProt Q16633 1-256, looked up)
chain: MLWQKPTAPEQAPAPARPYQGVRVKEPVKELLRRKRGHASSGAAPAPTAVVLPHQPLATYTTVGPSCLDMEGSVSAVTEEAALCAGWLSQPTPATLQPLAPWTPYTEYVPHEAVSCPYSADMYVQPVCPSYTVVGPSSVLTYASPPLITNVTTRSSATPAVGPPLEGPEHQAPLTYFPWPQPLSTLPTSTLQYQPPAPALPGPQFVQLPISIPEPVLQDMEDPRRAASSLTIDKLLLEEEDSDAYALNHTLSVEGF
As to B1, the binding result was “binds”.
